Test results published in patent US20150056209A1, “PEPTIDE MIMOTOPES TO OXIDATION SPECIFIC EPITOPES” (The Regents of the University of California, priority 2012, published 2015).
Bridges are numbered along the chain shown (N, C = ends). Where no end group is shown, it is not given here.

Tests used:
[1] = molecular target: control isotype anti-KLH IgM Ab (C48-6; BD Bioscience-Pharmingen); experiment: phage ELISA, coated control IgM
LRO4 [2] = experiment: phage ELISA, coated LRO4
LRO4 [3] = experiment: competitive phage ELISA, coated LRO4; competitor MDA-LDL 50 µg/mL

NSRTNNSQWTFQGGGS (peptide, not shown: large carriers) [phage clone A34] showed an OD (binding of phages to control IgM) [1] of 0.11 OD, an OD (binding of phages to LR04) (LRO4 [2]) of 0.82 OD and a B/Bo (inhibition of binding to LR04) (LRO4 [3]) of 0.11 B/Bo.

In the case of HRLTNSEQAALPGGGS (peptide, not shown: large carriers) [phage clones M3, M5], the OD (binding of phages to control IgM) [1] is reported as 0.03 OD, the OD (binding of phages to LR04) (LRO4 [2]) is reported as 1.56 OD and the B/Bo (inhibition of binding to LR04) (LRO4 [3]) is reported as 0.1 B/Bo.

With ACNNSNMPLCGGGS (peptide, not shown: large carriers, disulfide 2-10; also: C-terminus fused to phage pIII) [phage clone Cb10] the OD (binding of phages to control IgM) [1] was 0.2 OD, the OD (binding of phages to LR04) (LRO4 [2]) was 0.6 OD and the B/Bo (inhibition of binding to LR04) (LRO4 [3]) was 0.02 B/Bo.

In the case of HSLSNIQMATLAGGGS (peptide, not shown: large carriers) [phage clones M10, G8], the OD (binding of phages to control IgM) [1] is reported as 0.03 OD, the OD (binding of phages to LR04) (LRO4 [2]) is reported as 1.16 OD and the B/Bo (inhibition of binding to LR04) (LRO4 [3]) is reported as 0.1 B/Bo.

HSWSNYWGHQHAGGGS (peptide, not shown: large carriers) [phage clone A32] gave an OD (binding of phages to control IgM) [1] of 0.02 OD, an OD (binding of phages to LR04) (LRO4 [2]) of 0.98 OD and a B/Bo (inhibition of binding to LR04) (LRO4 [3]) of 0.18 B/Bo.

ACNNRNMPLCGGGS (peptide, not shown: large carriers, disulfide 2-10; also: C-terminus fused to phage pIII) [phage clones Ca59, Cb1] gave an OD (binding of phages to control IgM) [1] of 0.1 OD, an OD (binding of phages to LR04) (LRO4 [2]) of 0.8 OD and a B/Bo (inhibition of binding to LR04) (LRO4 [3]) of 0.06 B/Bo.

Binder EVMNNWTLASIMGGGS (peptide, not shown: large carriers) [phage clone M30] has an OD (binding of phages to control IgM) [1] of 0.03 OD, an OD (binding of phages to LR04) (LRO4 [2]) of 1.04 OD and a B/Bo (inhibition of binding to LR04) (LRO4 [3]) of 0.06 B/Bo.

HRMTNNAMDVFMGGGS (peptide, not shown: large carriers) [phage clones M6, G10] showed an OD (binding of phages to control IgM) [1] of 0.03 OD, an OD (binding of phages to LR04) (LRO4 [2]) of 1.56 OD and a B/Bo (inhibition of binding to LR04) (LRO4 [3]) of 0.2 B/Bo.

ACNNSKMRLCGGGS (peptide, not shown: large carriers, disulfide 2-10; also: C-terminus fused to phage pIII) [phage clone Ca2] was tested, and the OD (binding of phages to control IgM) [1] was 0.2 OD, the OD (binding of phages to LR04) (LRO4 [2]) was 0.8 OD and the B/Bo (inhibition of binding to LR04) (LRO4 [3]) was 0.12 B/Bo.

In the case of ACDWAPHFTCGGGS (peptide, not shown: large carriers, disulfide 2-10; also: C-terminus fused to phage pIII) [phage clone Cb2], the OD (binding of phages to control IgM) [1] is reported as 0.2 OD, the OD (binding of phages to LR04) (LRO4 [2]) is reported as 1 OD and the B/Bo (inhibition of binding to LR04) (LRO4 [3]) is reported as 0.03 B/Bo.

Binder QSYTNDDVLRISGGGS (peptide, not shown: large carriers) [phage clone M19] has an OD (binding of phages to control IgM) [1] of 0.03 OD, an OD (binding of phages to LR04) (LRO4 [2]) of 1.67 OD and a B/Bo (inhibition of binding to LR04) (LRO4 [3]) of 0.25 B/Bo.

ACNNSHMPLCGGGS (peptide, not shown: large carriers, disulfide 2-10; not fully specified) [phage clones Ca9, Cb3, Ca8, Ca10] gave an OD (binding of phages to control IgM) [1] of 0.2 OD, an OD (binding of phages to LR04) (LRO4 [2]) of 0.9 OD and a B/Bo (inhibition of binding to LR04) (LRO4 [3]) of 0.04 B/Bo.

In the case of ACNNQNMPLCGGGS (peptide, not shown: large carriers, disulfide 2-10; also: C-terminus fused to phage pIII) [phage clone Cb9], the OD (binding of phages to control IgM) [1] is reported as 0.01 OD, the OD (binding of phages to LR04) (LRO4 [2]) is reported as 0.7 OD and the B/Bo (inhibition of binding to LR04) (LRO4 [3]) is reported as 0.02 B/Bo.

Work on ACNNYNMPLCGGGS (peptide, not shown: large carriers, disulfide 2-10; also: C-terminus fused to phage pIII) [phage clone Cb589] yielded an OD (binding of phages to control IgM) [1] of 0.1 OD, an OD (binding of phages to LR04) (LRO4 [2]) of 0.8 OD and a B/Bo (inhibition of binding to LR04) (LRO4 [3]) of 0.03 B/Bo.

Work on ACNNSXMPLCGGGS (peptide, not shown: large carriers, disulfide 2-10; not fully specified; X: residue not identified in the source) [phage clone Ca6] yielded an OD (binding of phages to control IgM) [1] of 0 OD, an OD (binding of phages to LR04) (LRO4 [2]) of 0.7 OD and a B/Bo (inhibition of binding to LR04) (LRO4 [3]) of 0.04 B/Bo.

Work on ESWTNSWAMYFGGGGS (peptide, not shown: large carriers) [phage clone M2] yielded an OD (binding of phages to control IgM) [1] of 0.03 OD, an OD (binding of phages to LR04) (LRO4 [2]) of 1.17 OD and a B/Bo (inhibition of binding to LR04) (LRO4 [3]) of 0.2 B/Bo.

TAVTNSMMERLWGGGS (peptide, not shown: large carriers) [phage clone M8] showed an OD (binding of phages to control IgM) [1] of 0.04 OD, an OD (binding of phages to LR04) (LRO4 [2]) of 1.57 OD and a B/Bo (inhibition of binding to LR04) (LRO4 [3]) of 0.2 B/Bo.

With QNMNNWTLASIMGGGS (peptide, not shown: large carriers) [phage clone A31] the OD (binding of phages to control IgM) [1] was 0.08 OD, the OD (binding of phages to LR04) (LRO4 [2]) was 0.85 OD and the B/Bo (inhibition of binding to LR04) (LRO4 [3]) was 0.25 B/Bo.

HSLTNTQMTQLSGGGS (peptide, not shown: large carriers) [phage clone M31] gave an OD (binding of phages to control IgM) [1] of 0.03 OD, an OD (binding of phages to LR04) (LRO4 [2]) of 1.35 OD and a B/Bo (inhibition of binding to LR04) (LRO4 [3]) of 0.4 B/Bo.

HRISNYAMELHSGGGS (peptide, not shown: large carriers) [phage clone G4] gave an OD (binding of phages to control IgM) [1] of 0.04 OD, an OD (binding of phages to LR04) (LRO4 [2]) of 1.45 OD and a B/Bo (inhibition of binding to LR04) (LRO4 [3]) of 0.1 B/Bo.

For NSWTNASLSTFHGGGS (peptide, not shown: large carriers) [phage clone A40], the OD (binding of phages to control IgM) [1] was 0.04 OD, the OD (binding of phages to LR04) (LRO4 [2]) was 0.89 OD and the B/Bo (inhibition of binding to LR04) (LRO4 [3]) was 0.1 B/Bo.

ACQNSHMPLCGGGS (peptide, not shown: large carriers, disulfide 2-10; also: C-terminus fused to phage pIII) [phage clone Ca3] gave an OD (binding of phages to control IgM) [1] of 0.1 OD, an OD (binding of phages to LR04) (LRO4 [2]) of 0.5 OD and a B/Bo (inhibition of binding to LR04) (LRO4 [3]) of 0.04 B/Bo.

Binder HRMTNAMHHFMGGGGS (peptide, not shown: large carriers) [phage clone A38] has an OD (binding of phages to control IgM) [1] of 0.21 OD, an OD (binding of phages to LR04) (LRO4 [2]) of 0.64 OD and a B/Bo (inhibition of binding to LR04) (LRO4 [3]) of 0.1 B/Bo.

ACNNWKMPLCGGGS (peptide, not shown: large carriers, disulfide 2-10; also: C-terminus fused to phage pIII) [phage clone Cb4] gave an OD (binding of phages to control IgM) [1] of 0.1 OD, an OD (binding of phages to LR04) (LRO4 [2]) of 0.6 OD and a B/Bo (inhibition of binding to LR04) (LRO4 [3]) of 0.02 B/Bo.

ESWTNSWAHYFGGGGS (peptide, not shown: large carriers) [phage clones A36, B41, M35] was tested, and the OD (binding of phages to control IgM) [1] was 0.03 OD, the OD (binding of phages to LR04) (LRO4 [2]) was 1.16 OD and the B/Bo (inhibition of binding to LR04) (LRO4 [3]) was 0.14 B/Bo.

With ASISNLTLSRFMGGGS (peptide, not shown: large carriers) [phage clone M15] the OD (binding of phages to control IgM) [1] was 0.04 OD, the OD (binding of phages to LR04) (LRO4 [2]) was 1.34 OD and the B/Bo (inhibition of binding to LR04) (LRO4 [3]) was 0.15 B/Bo.

ACNNWNMPLCGGGS (peptide, not shown: large carriers, disulfide 2-10; also: C-terminus fused to phage pIII) [phage clones Ca1, Ca7] showed an OD (binding of phages to control IgM) [1] of 0.1 OD, an OD (binding of phages to LR04) (LRO4 [2]) of 0.8 OD and a B/Bo (inhibition of binding to LR04) (LRO4 [3]) of 0.04 B/Bo.

ACKNSXQPLCGGGS (peptide, not shown: large carriers, disulfide 2-10; not fully specified; X: residue not identified in the source) [phage clone Ca4] showed an OD (binding of phages to control IgM) [1] of 0.1 OD, an OD (binding of phages to LR04) (LRO4 [2]) of 0.9 OD and a B/Bo (inhibition of binding to LR04) (LRO4 [3]) of 0.13 B/Bo.
